According to the nanobody polyreactivity screen of Harvey et al. (2022):

Experiment: yeast display, Sf9 membrane polyspecificity reagent, FACS + sequencing; frameworks hold sequencing errors
Method in brief: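 Genes from sorted yeast were amplified by colony PCR, read by MiSeq 2 × 250 sequencing and filtered on CDR length. These cells carried a synthetic nanobody library in Saccharomyces cerevisiae BJ5465 and were sorted by FACS into low and high (top ~1%) gates on anti-HA and streptavidin fluorescence. Polyreactivity is labelled according to the gate of origin.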

Sequence | polyreactivity (PSR sort gate)
QVQLVESGGGLVQAGGSLRLSCAASGRTFTVYAMGWYRQAPGKERELVAAIRRTGSTYYADSVKGRFTISRDNAKNTVYLQMNSLKPEDTAVYYCNAEGSSVLTGYWGYPPYWDTYDYWGQGTQVTVSS | low polyreactivity
QVQLVETGGGLVQAGGILRLSCAASGSTFYRNAMGWYRQAPGKERELVAAINSTDSTNYADSVKGRFTISRDNAKNTVYLQMNSLKPEDTAVYFCAAVGVNLATAEYDYWGQGTQVTVSS | low polyreactivity
QVQLVESGGGLVQAGGSLRLSCAASGSTFTPYAMGWYRQAPGKERELVAAITWRTGSTRYADSVKGRFTISRDNAKNTVYLQMNSLKPEDTAVYYCAAKVTRFGAPGVNYWGQGTKVTVSS | high polyreactivity
QVQLVESGGGLVQAGGSLRLSCAASGSNFGSYTMGWSRQAPGKERELVAAISLGGGSTYYADSVKGRFTISRDNAKNTVYLQMNSLKPEDTAVYYCAAGFTDPYDYWGQGTQVTVSS | low polyreactivity
QVQLVESGGGLVQAGGSLRLSCAASGSIFVRYAMGWYRQAPGKERQLVASIRSRGDSTYYADSVKGRFTISRDNAKNTVYLQMNSLKPEETAVYYCAARRYPPRMDYWGQGTQVTVSS | high polyreactivity
QVQLVESGGGLVQAGGSLRLSCAASGRTFPGYGMGWYRQAPGKERELVAVITSNGGITYYADSVKGRFTISRDNAKNTVYLQMNSLKPEDTAVYYCAAQNVWFYGFWRDYWGQGTQVTVSS | low polyreactivity
QVQLVESGGGLVQAGGSLRLSCAASGFTFNAYAMGWYRQAPGKERELVAAINVSGGITYYADSVKGRFTISRDIAKNTVYLQMNSLKPEDTAVYYCAADVEWTSRGSYYRYYYWGQGTQVTVSS | low polyreactivity
QVQLVESGGGLVQAGGSLRLSCAASGFTFSTYAMGWYRQAPGKERELVAAISSGDSTYADSVKGRFTISRDNAKNTVYLQMNSLKPEDTAVYYCAAYVSVPYRNYYYWGQGTQVTVSS | high polyreactivity
QDQLVESGGGLVQAGGSLRLSCAASGRTFDNYAMGWYRQAPGKERELVARITDTGGSTYYADSVKGRFTISRDNAKNTVYLQMNSLKPEDTAVYYCAADSYPFAWYWLYYYWGQGTQVTVSS | low polyreactivity
QVQLVESGGGLVQAGGSLRLSCAASGRTLGIYAMGWYIQAPGKERELVADISRDSSTYYADSVKGRFTISRDNAKNTVYLQMNSLKPEDTAVYYCNADQTPRDVTDWWYDYDYWGQGTQVTVSS | low polyreactivity
QVQLVESGGGLVQAGGSLRLSCAASGRIFFRNAMGWYRQAPGKERELVAVINTGGSTNYADSVKGRFTISRDNAKNTVYLQMNSLKPEDTAVYYCAVDRASRRTYNQYGYWGQGTQVTVSS | high polyreactivity
QVQLVESGGGLVQAGGSLRLSCAPSGRIIYRYAIGWYRQAPRKETDLVAAITIGGRTNYADSVKGRFTISRDNANNPVYLEMISLKPEDTAVYYCAVVLYTRYPPRVRYYYWGQGTQVTVSS | high polyreactivity
QVQLVESGGGLVQAGGSLRLSCAASGRIFKTYAMGWYRQAPGKERELVAAITASGGRTYYADSVKGRFTISRDNAKNTVYLQMNSLTPEDSAVYYCAAPLLRDLRSPYSYNYWGQGTQVTVSS | low polyreactivity
QVQLVESGGGLVQAGGSLRLSCAASGSIFRSYAKGWYRQAPGKERELVAAISSSGGRKYYADSVKGRFTISRDNAKNTVYLQMNSLKPEDTAVYYCAAYGAGGYKYDYWGQGTQVTVSS | low polyreactivity
QVQLVESGGGLVQAVGSLRLSCAASGFIFVRYAMGWYRQAPAKERELVAAISYSGGSTYYADSVKGRFTISRDNAKNTVYLQMNSLKPEDTAVYYCAAEYYSGGYRYYAEYGYWGQGTQVTVSS | high polyreactivity
QVQLVESGGGLVQAGGSLRLSCAASGRTFPVNAMGWYRQAPGKERELVATISWSGGSTYYADSVKGRFTISRDYAKNTVYLQMNSLKPEDTAVYYCAALGRHYRYDYWGQGTLVTVSS | low polyreactivity
QVQLVESGGGLVQAGGSLRLICAASGNTFTGYVMGWNRQAPGKEREYVAAIRSGGSTYYADSVKGRFTISRDNAKNTVYLQMNSLKPEDTSVYYCAKCVTPYRTSAYGYWGQGTQVTVSS | high polyreactivity
QVQLVESGGGLVQAGGSLRLICAASGRTSYTYVMGWYRQAPGKERELVAAIRLSGGNTYYADSVKGRFTISRDNAKNTVYLQMNSLKPEDTAVYYCAAQYWRHRKAYGYWGQGSQVTVSS | high polyreactivity
QVQLVESGGGLVQAGGSLRLSCAASGRIFYYAMGWYRQAPGKEREFVAAISGSGGSTNYADSVKGRFTISRDNAKNTVYLQMNSLKPEDTAVYYCNAESWSWGFIYEYEYWGQGTQVTVSW | high polyreactivity
QVQLVESGGGLVQAGGSLRLSCAASGSIFGGYAMGWYRQAPGKERELVAAISGSGGSTYYADSVKGRFTISRDNAKNTVYLQMNSLKPEDTAVYYCAADSNKYGYEYDYWGQGTQVTVSS | low polyreactivity
QVQLVESGGGLVQAGGSLRLSCAPSGLIFYRYAMGWYRQAPGKERELVAAITRGGSTHYADSVKGRFTISRDNAKFTVYLQMNSLKPEDTAVYYCAATFKGRIYRYEYWGQGTQVTVSS | high polyreactivity
QVHLVVSGGGLVQEGGSLSLRWAASGSTFEYYGMGWYTQAPGKERELVAAITVSGGSTYYADSVKGRFTISRDNEKNTVYLQIHSLKPEDSAVCYCAARPILYWYFRFDYWGQGTQVTVSS | low polyreactivity

Sequence | polyreactivity (PSR sort gate)
QVQLVESGGGLVQAGGSHRLSCASSGRTLLAYAMGWYIQAPGKEREFVDAISSRGVRTYYADSVKGRFTISRDNANNTVYLQMNSLKPEDTAVYYCASRGTKSIKDVPGIRYGYWGQGTQVTVSS | high polyreactivity
QVQLVESGGGLVQAGGSLRLSCAASGGTFYVYAMGWYRQAPGKERELVAAISTSGGSTYYADSVKGRFTISRDNAKNTVYLQMNSLKPEDTAVYYCAARRVSFSGHPRYGYWGQGTQVTVSS | high polyreactivity
QVQLVESGGGLVQAGGSLRLSCAASGNTSPYSAMGWYRQAPGKEREWVAGISSGGTTNYADSVKGRFTISRDNAKNTVDLQMNSLKPVDTAVYYCAADEWYVECLGYFFAYDYWGQGTQVTVSS | low polyreactivity
QVQLVESGGGLVQAGGSLRLSCAASGFISSENAMGWYRQAPGKERELVAATSSGGSTNYADSVKGRFTISRDNAKNTVYLQMNSLKPEDTAVYYCAALFPKNLQKVGRYDYWGQGTQVTVSS | low polyreactivity
QVQLVESGGGLVQPGGSLRLTCAAYGFIFGYNSMGWYSQAPGKERELVAAISSGGSTYYADSVNGLFTISRDNAKNTVYLQMNSVKPDDTAVYYCAVELGYPIQSDALWWDFEYWGQGTQVTVSS | low polyreactivity
QVQLVESGGGLVQAGGSLRLSCAASGSTFPPYGMGWYRQAPGKERELVASITSGGSTNYADSVKGRFTISRDNAKNTVYLQMNSLKPEDTAVYYCNADLHSHYDYWGQGTQVTVSS | low polyreactivity
QVQLVESGGGLVQAGGSLRLSCAASGRTFRRYTMGWYRQAPGKERELVAAITSGGRTNYADSVKGRFTISRDNAKNTVYLQMNSLKPEDTAVYYCNAQNEIWRVTFSPFDRWGYDYWGQGTQVTVSS | low polyreactivity
QVQLVESGGGLVQAGGSLRLSCAASGLIFYYYVMGWYRQAPGKERELVARISTSGGSTYYADSVKGRFTISRDNAKNTVYLQMNSLKPEDTAVYYCAARGYRQYGWDGYWGQGTQVTVSS | low polyreactivity
QVQLVESGGGLVQAGGSLRLSCAASGITFPGYAMGWYRQAPGKERELVAAISDSGSSTYYADSVKGRFTISRDNAKNTVYLQMNSLKPEDTAVYYCAAVSGFYDQYDYWGQGTQVTVSS | low polyreactivity
QVQLVESGGGLVQAGGSLRLSCAASGRTVGYYGMGWYRQAPGKERELVAAITGSGGSTYYADSVKGRFTISRDNAKNTVYLQMNSLKPEDTAVYYCAATYLSRWTLYDYWGQGTQVTVSS | high polyreactivity
QVQLVESGGGLVQAGGSLRLSCAASGSIFTVYAMGWYRQAPGKESELVASIRFSSGRTYYADSVKGRFTISRDNAKNTVYLQMNSLKQEDTAVYYCASETVSWYRYYYWGQGTQVTVSS | high polyreactivity
QVQLVESGGGLVQAGGSLRLSCAASARTFATYAMGWYRHAPGKEWELVAGITSGGNTYYADSVKGRFTISRDNAKNTVYLQMNSLKPVDTAVYYCAADRVYLGLFRYEYWGQGTQVTVSS | high polyreactivity
QVQLVESGGGLVQAGSSLRLSCAASGRTLIYNAMGWYRQAPGKERELVASINRRGDSTYYADSVKGRFTISRDNAKNTVYLQMNSLKPEDTAVYYCAKVLYGGYPENRYFVGWGRDYWGQGTQVTVSS | high polyreactivity
QVQLVESRGGLVQAGGSLRLSCAASGITFDVYDMGWYRQAPGKERELVASINSGGGITYYADSVKGRFTISRDNAKNTVYLQMNSLKPEDTAVFYCADDTWGSSWYDLFRETSDYWGQVTQVTVSS | low polyreactivity
QVQLVESGGGLVQAGGSLRLSCAASGSTFGAYTMGWYRQAPGKERELVAAISSDGSTYYADSVKGRFTISRDNAKNTVYLQMNSLKPEDTAVYYCNARYHFYGRADYSYYYLFDYWGQGTQVTVSS | low polyreactivity
QVPLVESGGGIDQAGGSLRLSCAASGFIFCTYTMGWYIQAPGNEWELVAAISKSSGSTYYADSVKGRFTISRDNAKKTVYLQMNSLKPEDTAVYYCAAPTRSYGTPPYDYWGQGTQVTVSA | low polyreactivity
QVQLVESGGGLVQAGGSLRFSCAASGLIFGSYTMGWSRQAPGKERELVAGISRGGGITYYADSVKGRFTISRDNAKNTVYLQMNSLKPEDTAVYYCAAGYFSYSPYGSYKFGYWGQGTQVTVSS | high polyreactivity
QVQLVESGGGLVQAGGSLRLSCAASGSIFVKNAMGWYRQAPGKEREFVAAITTSGGSTNYADSVKGRFTISLDNAKNTVYLQMNSLKPEDTAVYYCNTDIFPAAYDYWGQGTQVTVSS | low polyreactivity
QVQLVESGGGLVQAGGSLRLSCAASGRIFIAYTMGWYRPAPGKERELVAAITWNGGSTYYADSVKGRFTISRDNAKNTVYLQMNSLKPEDTAVYYWVVVSRPGPKPAREMDYWGQGTQVTVSS | low polyreactivity
QVQLVESGGGLVQAGGSLRLSCASSGSTFEANAMGWYRQAPGKERELVAVITWTGGSTYYADSVKGRFTISRDNAKNTLYLQMNSLKPEDTAVYYCDADGVVPGRFFWPAHEYEYWGQGTQGTVSS | low polyreactivity
QVQLVESGGGLVQAGGSLRLSCAASGSTFDYYVMGWYRQAPGKERELVAAISLSGGSTYYADSVKGRFTISRDNAKNTVYLQMNSLKPEHTAVYYCAAQTKPASRVTYYWYYYWGQGTQVTVSS | high polyreactivity
